Numbering of substitutions follows the chain as printed. Like-named read-outs stand apart in the source and are kept apart here.
B1: 10-1074 (antibody, V domains shown)
VH: QVQLQESGPGLVKPSETLSVTCSVSGDSMNNYYWTWIRQSPGKGLEWIGYISDRESATYNPSLNSRVVISRDTSKNQLSLKLNSVTPADTAVYYCATARRGQRIYGVVSFGEFFYYYSMDVWGKGTTVTVSS
VL: SYVRPLSVALGETARISCGRQALGSRAVQWYQHRPGQAPILLIYNNQDRPSGIPERFSGTPDINFGTRATLTISGVEAGDEADYYCHMWDSRSGFSWSFGGATRLTVL
B2: 10-847 (antibody, V domains shown)
VH: B1 VH with E55A
VL: B1 VL with R15S
B3: 10-1074GM (antibody, V domains shown)
VH: B1 VH with Y32S, D53K, R54S, T58N, R100H, Y115T
VL: B1 VL
notes: also called 10-1074 glycomutant
B4: 10-1341 (antibody, V domains shown)
VH: B1 VH with K75T, K124R
VL: B1 VL
B5: 10-410 (antibody, V domains shown)
VH: QVQLQESGPGLVKPPETLSLTCSVSGASVNDAYWSWIRQSPGKRPEWVGYVHHSGDTNYNPSLKRRVTFSLDTAKNEVSLKLVALTAADSAVYFCARALHGKRIYGIVALGELFTYFYMDVWGKGTTVTVSS
VL: SFVSVAPGQTARITCGEESLGSRSVIWYQQRPGQAPSLIIYNNNDRPSGIPERFSGSPGSTFGTTATLTITSVEAGDEADYYCHIWDSRRPTNWVFGEGTTLTVL

Columns and labels:
YU-2 gp120 [1] = target: T1, YU-2 gp120 (HIV-1 (strain YU-2), UniProt P35961 32-498); assay: ELISA, coated antigen, OD405 vs [IgG] (M)
T1 construct: domain: gp120; also called gp120WT; intact YU-2 gp120

gp120GD324-5AA = assay: ELISA, coated antigen, OD405 vs [IgG] (M)
YU-2 gp120 [2] = target: T1, YU-2 gp120; assay: ELISA, coated antigen, OD405 vs [IgG] (M); remark: listed apart in the source
YU-2 gp120 [3] = target: T1, YU-2 gp120; assay: ELISA, coated antigen, OD405 vs [IgG] (M); remark: listed apart in the source
YU-2 gp120 [4] = target: T1, YU-2 gp120; assay: ELISA, coated antigen, OD405 vs [IgG] (M); remark: listed apart in the source
YU-2 gp120 [5] = target: T1, YU-2 gp120; assay: ELISA, coated antigen, OD405 vs [IgG] (M); remark: listed apart in the source
YU-2 gp120 [6] = target: T1, YU-2 gp120; assay: SPR, IgG over immobilised YU-2 gp120, 1:1 fit, apparent constant
gp120NNT301-303AAA = assay: ELISA, coated antigen, OD405 vs [IgG] (M)
YU-2 gp120 [7] = target: T1, YU-2 gp120; assay: ELISA, coated antigen, OD405 vs [IgG] (M); remark: listed apart in the source
[8] = target: HIV-1 CNE19 envelope on pseudovirus (HIV-1 (strain CNE19)); assay: cell-based or functional assay
[9] = target: HIV-1 62357_14_D3_4589 envelope on pseudovirus (HIV-1 (strain 62357_14_D3_4589)); assay: cell-based or functional assay
YU-2 gp120 [10] = target: T1, YU-2 gp120; assay: SPR, apparent KD on gp120, bar graph

Binder	EC50 (read off the curve) (YU-2 gp120 [1])	binding result (gp120GD324-5AA)	EC50 (read off the curve) (YU-2 gp120 [2])	EC50 (read off the curve) (YU-2 gp120 [3])	EC50 (read off the curve) (YU-2 gp120 [4])	EC50 (read off the curve) (YU-2 gp120 [5])	Ka (YU-2 gp120 [6])	Kd (YU-2 gp120 [6])	koff (YU-2 gp120 [6])	EC50 (read off the curve) (gp120NNT301-303AAA)	EC50 (read off the curve) (YU-2 gp120 [7])	IC50, TZM-bl neutralization [8]	IC50, TZM-bl neutralization [9]	fold difference of KD, wildtype vs glycomutant (YU-2 gp120 [10])	binding result (gp120NNT301-303AAA)
B1	~0.3 nM	binds	~0.5 nM	~0.7 nM	~0.5 nM	~0.3 nM	1.1e+08 M⁻¹	9.5 nM	0.00019 s⁻¹	~0.1 nM	~0.1 nM				
B2	~0.3 nM	binds	~0.3 nM	~0.4 nM	~0.3 nM	~0.2 nM	1.1e+08 M⁻¹	8.9 nM	0.00018 s⁻¹	~0.1 nM	~0.1 nM				
B3												0.19 µg/mL	40.8 µg/mL	1.8 fold	
B4	~0.5 nM	binds	~0.2 nM	~0.6 nM	~0.5 nM	~0.4 nM	1.2e+08 M⁻¹	8.2 nM	0.00016 s⁻¹	~0.09 nM	~0.09 nM				
B5		binds					2.1e+07 M⁻¹	47 nM	0.0017 s⁻¹						binds

Reference: patent publication US12338277 (ROCKEFELLER UNIVERSITY, dated 2025)
